Key:
[1] = molecular target: SCBio-4PEG-Peptide (Tau191-214) pS199-old (human); test: one point ELISA
[2] = molecular target: Tau191-214 phospho-peptide (pS199) (human); test: one point ELISA
[3] = molecular target: Tau191-214 phospho-peptide (pS199/pS202) (human); test: one point ELISA
[4] = molecular target: Tau191-214 phospho-peptide (pS199/pS202/pT205) (human); test: one point ELISA
[5] = molecular target: Tau191-214 phospho-peptide (pS199/pT205) (human); test: one point ELISA
[6] = molecular target: Tau191-214 phospho-peptide (pS202) (human); test: one point ELISA
[7] = molecular target: Tau191-214 phospho-peptide (pS202/pT205) (human); test: one point ELISA
[8] = molecular target: Tau191-214 phospho-peptide (pT205) (human); test: one point ELISA
[9] = molecular target: AT8 peptide (amino acids 195-215 of tau) (human); test: BLI (Octet), peptide on streptavidin tip
[10] = molecular target: Peptide 5 (tPeptide 5) (pT212/pS214/pT217) (human); test: one point ELISA
[11] = molecular target: Tau204-222 phospho-peptide (pS214) (human); test: one point ELISA
[12] = molecular target: Tau204-222 phospho-peptide (pS214/pT217) (human); test: one point ELISA
[13] = molecular target: Tau204-222 phospho-peptide (pT212) (human); test: one point ELISA
[14] = molecular target: Tau204-222 phospho-peptide (pT212/pS214) (human); test: one point ELISA
[15] = molecular target: Tau204-222 phospho-peptide (pT212/pS214/pT217) (human); test: one point ELISA
[16] = molecular target: Tau204-222 phospho-peptide (pT212/pT217) (human); test: one point ELISA
[17] = molecular target: Tau204-222 phospho-peptide (pT217) (human); test: one point ELISA
[18] = molecular target: wtTau C2 (human); test: one point ELISA
[19] = molecular target: Tau217-234 phospho-peptide (pT217/pT220/pT231) (human); test: BLI
[20] = molecular target: Tau225-240 phospho-peptide (pT231) (human); test: BLI

SCBio-4PEG-Peptide (Tau191-214) pS199-old (human), sequence (peptide, as listed by the source): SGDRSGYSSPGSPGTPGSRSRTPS
Tau191-214 phospho-peptide (pS199) (human), sequence (peptide, as listed by the source): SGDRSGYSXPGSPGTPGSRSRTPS
Tau191-214 phospho-peptide (pT205) (human), sequence (peptide, as listed by the source): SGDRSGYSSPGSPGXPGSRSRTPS
Tau191-214 phospho-peptide (pS202) (human), sequence (peptide, as listed by the source): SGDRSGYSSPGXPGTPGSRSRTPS
AT8 peptide (amino acids 195-215 of tau) (human), sequence (peptide, as listed by the source): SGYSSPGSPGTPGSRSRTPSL

OD450 [1] [OD450 nm] | OD450 [2] [OD450 nm] | OD450 [3] [OD450 nm] | OD450 [4] [OD450 nm] | OD450 [5] [OD450 nm] | OD450 [6] [OD450 nm] | OD450 [7] [OD450 nm] | OD450 [8] [OD450 nm] | Kd [9] [pM] | OD450 [10] [OD450 nm] | OD450 [11] [OD450 nm] | OD450 [12] [OD450 nm] | OD450 [13] [OD450 nm] | OD450 [14] [OD450 nm] | OD450 [15] [OD450 nm] | OD450 [16] [OD450 nm] | OD450 [17] [OD450 nm] | OD450 [18] [OD450 nm] | Kd [19] [pM] | Kd [20] [pM] | Substance
0.056 | 0.056 | 2.39 | 3.07 | 0.139 | 0.058 | 2.94 | 0.065 | 309 |  |  |  |  |  |  |  |  |  |  |  | anti-tau antibody AT8 (ThermoFisher, Waltham, MA)
 |  |  |  |  |  |  |  |  | 2.81 | 3.14 | 3.13 | 3.16 | 3.14 | 3.17 | 3.16 | 3.13 | 1.2 |  |  | PT3-hIgG1 (antibody)
 |  |  |  |  |  |  |  |  |  | 0.065 | 0.067 | 0.069 | 0.071 | 0.187 | 0.069 | 0.068 |  |  |  | anti-tau antibody AT100 (ThermoFisher, Waltham, MA)
0.06 | 0.058 | 0.062 | 0.245 | 0.09 | 0.055 | 0.249 | 0.054 |  | 0.141 | 0.061 | 0.059 | 0.06 | 0.059 | 0.053 | 0.057 | 0.083 | 0.124 |  |  | hIgG1 isotype control (antibody)
 |  |  |  |  |  |  |  |  |  |  |  |  |  |  |  |  |  | 5 | 6 | AT180 (antibody)

Reference: patent publication US20240059766A1
